The data set in a line: yeast display, Sf9 membrane polyspecificity reagent, FACS + sequencing; frameworks hold sequencing errors. In a few lines: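 Nanobodies from a synthetic yeast display library (Saccharomyces cerevisiae BJ5465), induced 36–48 hours with galactose, were stained 1 hour at 4 °C with 10% biotinylated, detergent-solubilized Sf9 membrane reagent, enriched on streptavidin microbeads, then FACS-sorted. Anti-HA (expression) and streptavidin (reagent binding) fluorescence set low and high (top ~1%) gates. Polyreactivity labels come from the gate of origin. Genes were colony-PCR amplified, MiSeq 2 × 250 sequenced and filtered by CDR length.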
Take “QVQLVESGGGLVQAGGSLRLSCAASGRIFVRNAMGWYRQAPGKERELVADITNGGSTNYADSVKGRFTITRDNAKNTVYLQMNSLKPEDTAVYYCAADTLGVYDGDYWGQVTQVTVSS”: the “polyreactivity (PSR sort gate)” value was “low polyreactivity”.

With “QVQLVESGGGLVQAGGSLRLSCAASGRIFVRYAMGWYRQAPGKERELVAAISWSAGSTYYADSVKGRFTISRDNAKNTVYLQMNSLKPEDTAVYYCAAEYGNYETGHYGIYDYWGQGTQVTVSS”, the “polyreactivity (PSR sort gate)” value is “low polyreactivity”.

Take “QVQLVESGGGLVQAGGSLRLSCAASGRIFVRYARGWYSQAPGKERELVAAITSGGRTSYADSVKGRFTISRDNAKNTVYLQMNSLKPEDTAVYYWNVVSRNSIRFDYWGQGTQVTVSS”: the “polyreactivity (PSR sort gate)” value is “high polyreactivity”.

“QVQLVESGGGLVQAGGSLRLSCAASGRIFVRYTMGWYRQAPGKERELVAAITKRGGSTYYADSVKGRFTISRDNAKNTVYLQMNSLKPEDTAVYYCATDGLGYNRPQDEYWGLGTQVTVSS”: the “polyreactivity (PSR sort gate)” value is “high polyreactivity”.

As for “QVQLVESGGGLVQAGGSLRLSCAASGRIFVSNAMGWYRLAPGKERELVATISRSGGNTYYADSVKGRFTISRDNAKNTVYLQMNSLKPEYTAVYYSNSVSRRSYVKYDYWRQGTQVTVSS”, the “polyreactivity (PSR sort gate)” value was “high polyreactivity”.

For “QVQLVESGGGLVQAGGSLRLSCAASGRIFVSNTMGWYRQAPGKERELVAVIRTDSGSTYYADSVKGRFTISRDNAKNTVYLQMNSLKPEDTAVYYCAKVAYFASYRTGFYYWGQGTQVTVSS”, the “polyreactivity (PSR sort gate)” value is on record as “high polyreactivity”.

As for “QVQLVESGGGLVQAGGSLRLSCAASGRIFVSNVRGWYRQAPGKERELVAAIDKSGGSTYYADSVKGRFTISRDNAKNSVYLQMNSLKPEDTAVYYCAATSYRQPYRYYYWGQGTQVTVSS”, the “polyreactivity (PSR sort gate)” value is given as “high polyreactivity”.

As for “QVQLVESGGGLVQAGGSLRLSCAASGRIFVSYAMGWYRQAPGKERELVAAISRGGSTYYADSVKGRFTISRDNAKNTVYLQMNSLKPEDTAVYYCAARPSYRYGYWGQGTQVTVSS”, the “polyreactivity (PSR sort gate)” value was “high polyreactivity”.

On to “QVQLVESGGGLVQAGGSLRLSCAASGRIFVSYAMGWYRQAPGKERELVATINIGSDTYYADSVKGRFTISRDNAKNTVYLQMNSLKPEDTAVYYCAKDYYEGDSYPYPGYEYWGQGTQVTVSS”, for which the “polyreactivity (PSR sort gate)” value is “low polyreactivity”.

As to “QVQLVESGGGLVQAGGSLRLSCAASGRIFVTYAMGWYRQEPGKERELVAAISASGGSTYSADSVKGRFTISRDNAKNTVYLQMNSLKPEDTAVYYCAASYRSSLRPWAEDGFWGQGTQVTVSS”, the “polyreactivity (PSR sort gate)” value was “high polyreactivity”.

Consider “QVQLVESGGGLVQAGGSLRLSCAASGRIFVVNAMGWYRQAPGKERELVAAISRSGGSTYYADSVKGRFTISRDNAKNTVYLQMNSLKPEETAVYFCAAVSWIYSFSAMSIYDYWGQGTQVTVSS”, for which the “polyreactivity (PSR sort gate)” value was “high polyreactivity”.

Consider “QVQLVESGGGLVQAGGSLRLSCAASGRIFVVNAMGWYRQAPGKERELVAAITRRGGSTYADSVKGRFTISRDNAKNTVYLQMNSLKPEDTAVYYCNAESYSGIFSYKYDYWGQGTQVTVSS”, for which the “polyreactivity (PSR sort gate)” value is “high polyreactivity”.

As for “QVQLVESGGGLVQAGGSLRLSCAASGRIFVYNAMGWYRQAPGKEREFVATITSSGGRTYYADSVKGRFTISRDNAKNTVYLQMNSLKPEDTAVYYCAARPQNNGRNPVYRYNYWGQGTQVTVSS”, the “polyreactivity (PSR sort gate)” value is reported as “high polyreactivity”.

Consider “QVQLVESGGGLVQAGGSLRLSCAASGRIFVYNAMGWYRQAPGKERELVAAITSGGSTYYADSVKGRFTISRDNAKNTVYLQMNSLKPEDTAVYYCAATYFSYTYSRYDYWGQGTQVTVSS”, for which the “polyreactivity (PSR sort gate)” value is given as “high polyreactivity”.

On to “QVQLVESGGGLVQAGGSLRLSCAASGRIFVYNAMGWYRQAPGKERELVAGINGSGGSTYYAASVKGRFRISRDHAKNSVYLQMNSLKPEDTAGYYCNAWISYGYFIFDYWGQGTQVTVSS”, for which the “polyreactivity (PSR sort gate)” value is “high polyreactivity”.

“QVQLVESGGGLVQAGGSLRLSCAASGRIFVYNAMGWYRQAPGKERELVASISWSGDSTYADSVKGRFTISRDNAKNTVYLQMNSLKPEDTAVYYCAADNGSKEFDYWGQGTQVTVSS”: the “polyreactivity (PSR sort gate)” value is reported as “low polyreactivity”.

For the sequence “QVQLVESGGGLVQAGGSLRLSCAASGRIFVYYAMGWYRPAPGKERELVATITETGGSTYYADSVKGRFTISRDNAKNTVYLQMNSLKPEDSAVYYCNADYWGTYGWDWYWYVYWGQGTQVTVSS”, the “polyreactivity (PSR sort gate)” value is “low polyreactivity”.

As for “QVQLVESGGGLVQAGGSLRLSCAASGRIFVYYAMGWYRPAPWKERELVAVITSGGITYYADSVKGRFTISRDNAKNTVYLQMNSLKPEDTAVYYCAARGHQYDPGSSGKKYYYWGQGTQVTVSS”, the “polyreactivity (PSR sort gate)” value is reported as “high polyreactivity”.

Consider “QVQLVESGGGLVQAGGSLRLSCAASGRIFVYYAMGWYRQAPGKERELVAAISSGGDRTYYADSVKGRFTISRDNAKNTVYLQMNCLKPEDTAVYYCAKVYSTVKRYHWVGSRYDYWGQGTQVTVSS”, for which the “polyreactivity (PSR sort gate)” value is given as “high polyreactivity”.

With “QVQLVESGGGLVQAGGSLRLSCAASGRIFVYYAMGWYRQAPGKERELVASISYSGASTYYADSVKGRFTISRDNAKNTVYLQMNSLKPEDTAVYYCATDVRGVDGEDDYWGQGTQVTVSS”, the “polyreactivity (PSR sort gate)” value is “low polyreactivity”.

As to “QVQLVESGGGLVQAGGSLRLSCAASGRIFWDNAMGWYRQAPGKERELVAAISGSGGNTYYADSVKGRFTISRDNAKNTVYLQMNSLKPEDTAVYYCNAYGHYTKRYRYGGWFDYWGQGTQVTVSS”, the “polyreactivity (PSR sort gate)” value is “low polyreactivity”.

Consider “QVQLVESGGGLVQAGGSLRLSCAASGRIFWDNAMGWYRQAPGKERELVAAITFSGGSTYYADSVKGRFTISRDNAKNTVYLQMNSLKPEDTAVYYCAKGEWVYWRPWYEYWGQGTQVTVSS”, for which the “polyreactivity (PSR sort gate)” value was “low polyreactivity”.

On to “QVQLVESGGGLVQAGGSLRLSCAASGRIFWDYAMGWYRQAPGKERELVAVITFSGDSTYYADSVKGRFTISRDNAKHTVYIQMNSLKPEDTAVYYCAAARAIRQFWYVATFEYWGQGTLVTVSS”, for which the “polyreactivity (PSR sort gate)” value is given as “low polyreactivity”.

Take “QVQLVESGGGLVQAGGSLRLSCAASGRIFWEYAMGWYRQAPGKERELVAAITWRVGSTYYADSVKGRFTISRDNAKNTVYLQMNSLKPEDTAVYYCAAARYLSIYNYWGQGTQVTVSS”: the “polyreactivity (PSR sort gate)” value is on record as “low polyreactivity”.

As for “QVQLVESGGGLVQAGGSLRLSCAASGRIFWGNAMGWYRQAPGKERELVAAITSGDGTNYADSVKGRFTISRDNAKNTVYLQMNSLKPEDTAVYYCSYYYWGQGTQVTVSS”, the “polyreactivity (PSR sort gate)” value was “low polyreactivity”.

In the case of “QVQLVESGGGLVQAGGSLRLSCAASGRIFWGYAMGWYRQAPGKERELVAGITTGGSTKYADSVKGRFTISRDNAKNTVYLQMNSLKPEDTAVYYCAATGKWYHFYHYGYWGQGTQVTVSS”, the “polyreactivity (PSR sort gate)” value is reported as “low polyreactivity”.

With “QVQLVESGGGLVQAGGSLRLSCAASGRIFWGYAMGWYRQAPGKERELVAGITTGGSTKYADSVKGRFTISRDNAKNTVYLQMNSLKPVDTAVYYCAADDQYGYVYYAFWGYDYWGQGTQVTVSS”, the “polyreactivity (PSR sort gate)” value was “low polyreactivity”.

Consider “QVQLVESGGGLVQAGGSLRLSCAASGRIFWGYAMGWYRQAPGKEREVVAAISWSGGSTYYADSVKGRFTISRDNAKNTVYLQMNSLKPEDTAVYYCAALRFQSYNYWGQGTQVTVSS”, for which the “polyreactivity (PSR sort gate)” value is reported as “high polyreactivity”.

For “QVQLVESGGGLVQAGGSLRLSCAASGRIFWINAMGWYRQAPGKERELVAAISSGGGTHYADSVKGRFTISRDNAKNTVYLQMNSLKPEDTAVSYCARRYQRKKPVFPHYQGAYDYWGQGTQVTVSS”, the “polyreactivity (PSR sort gate)” value was “low polyreactivity”.

As to “QVQLVESGGGLVQAGGSLRLSCAASGRIFWNYAMGWYREAPGKERELVASINWSGGSTYSADSVKGRFTISRDNAKNTVYLQMNSLKPEDTAVYYCNQDGRVYLDHDYWGQGTQVTVSS”, the “polyreactivity (PSR sort gate)” value is on record as “low polyreactivity”.

Take “QVQLVESGGGLVQAGGSLRLSCAASGRIFWRNTMGWYRQAPGKERELVAAITRTGGSTYYADSVKGRFTISRDNAKNTVYLQMNSLKPEDTAVYYCAVYARWYGYGYGYWGQGTQVTVSS”: the “polyreactivity (PSR sort gate)” value is “high polyreactivity”.

As to “QVQLVESGGGLVQAGGSLRLSCAASGRIFWSNAMGWYRQAPGKERELVAAITWRGGSTYADSVKGRFTISRDNAKNTVYLQMNSLKPEDTAVYYCAASPSGWRYDYWGQGTQVTVSS”, the “polyreactivity (PSR sort gate)” value is given as “high polyreactivity”.

For “QVQLVESGGGLVQAGGSLRLSCAASGRIFWSYAMGWYRQAPGKERELVAAIRSGGTTDYADAVKGRFTISRDNAKYTVYLQMNSLKPEDTADYYCNREYRGAINYIYYYWGQGTQVTVSS”, the “polyreactivity (PSR sort gate)” value is on record as “low polyreactivity”.

In the case of “QVQLVESGGGLVQAGGSLRLSCAASGRIFWVYAMGWYRQAPGKERELVAAIDWSDGITYYADSVKGRFTISRDNAKNTVYLQMNSLKPEDTAVYYCAAESVIYQTYNYWGQGTQVTVSS”, the “polyreactivity (PSR sort gate)” value is “high polyreactivity”.

“QVQLVESGGGLVQAGGSLRLSCAASGRIFWVYTMGWYRQAPGKERELVAAITSADSTNYADSVKGRFTISRDNAKNTVYLQMNSLKAEDTAVYYCAARLARDQVREWDERYYYWGQGTQVTVSS”: the “polyreactivity (PSR sort gate)” value is “low polyreactivity”.

With “QVQLVESGGGLVQAGGSLRLSCAASGRIFWVYVMGWYRQAPGKERELVADITSIGGSTYYADSVKGRFTISRDNAKNTVDLQMNSLKPEDTAVYYCAAARRPTYCPVYPYFGYEYWGQGTQVTVSS”, the “polyreactivity (PSR sort gate)” value is on record as “low polyreactivity”.

In the case of “QVQLVESGGGLVQAGGSLRLSCAASGRIFWWYAMGWYRQAPGKERELVAVIDDSGGITYYADSVKGRFTISRDNAKHTVYLQMNSLKPEDTAVYYCARNVNAQKVLGGFDSWGQGTQVTVSS”, the “polyreactivity (PSR sort gate)” value is “low polyreactivity”.

Turning to “QVQLVESGGGLVQAGGSLRLSCAASGRIFWWYVMGWYRQAPGKERELVAAITRSGVSTYYADSVKGRFTLSRDNAKNTVYLQINSLKPEDTAVYYCNVGPWPRSYAHRGYWGQVTQVTVSS”, the “polyreactivity (PSR sort gate)” value was “high polyreactivity”.

Consider “QVQLVESGGGLVQAGGSLRLSCAASGRIFWYNAMGWYRQAPGKERELVAAISSGGSTSYADSVKGRFTISRDNAKNTVYLQMNSLKPEDTAVYYCAKDDERKQGQYPPYDSWGQGTQVTVSS”, for which the “polyreactivity (PSR sort gate)” value is given as “low polyreactivity”.

For “QVQLVESGGGLVQAGGSLRLSCAASGRIFWYVLGWYRQAPGNERELVATITSSGGSSYYADSVKGRFTISRDNAKNTVYLQMNSLKPEDTAVNYCAVDLQTLGADRIITVYVGEDYWGQGTQVTVSS”, the “polyreactivity (PSR sort gate)” value is “low polyreactivity”.

These data come from the nanobody polyreactivity screen of Harvey et al. (2022).
